Experimental data from patent US20240042018A1 (University of Washington, published 2024).
Positions count from the first letter of the chain named.

T1: I53_dn5B trimer
T1 chain: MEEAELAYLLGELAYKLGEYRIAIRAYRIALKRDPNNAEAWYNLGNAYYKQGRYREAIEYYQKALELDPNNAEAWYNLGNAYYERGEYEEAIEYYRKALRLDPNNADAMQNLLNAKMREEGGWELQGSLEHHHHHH

T2: I53_dn5B_2gly trimer (N-linked glycans at PNGS 32-YDNLT-36 and 89-NAT-91)
T2 chain: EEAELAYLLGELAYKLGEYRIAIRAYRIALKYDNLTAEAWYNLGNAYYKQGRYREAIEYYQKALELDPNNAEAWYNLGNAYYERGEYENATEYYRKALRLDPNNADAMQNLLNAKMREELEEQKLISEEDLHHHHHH

B1: I53_dn5A_D120C pentamer coupled to 1 kDa PEG (designed binder)
chain: MGKYDGSKLRIGILHARGNAEIILALVLGALKRLQEFGVKRENIIIETVPGSFELPYGSKLFVEKQKRLGKPLDAIIPIGVLIRGSTPHFDYIADSTTHQLMKLNFELGIPVIFGVITADTCEQAEARAGLIEGKMHNHGEDWGAAAVEMATKFNGGWELQLEGSHHHHHH
B2: I53_dn5A_S84C_D120C pentamer coupled to 5 kDa PEG (designed binder)
chain: B1 chain with S86C
modifications: 5 kDa PEG-maleimide on Cys84 and Cys120
B3: I53_dn5Acp7 PAS pentamer (designed binder)
chain: MGSHHHHHHGSDEQAEERAGTKAGNHGEDWGAAAVEMATKFNGSGGSGKYDGSKLRIGILHARGNAEIILELVLGALKRLQEFGVKRENIIIETVPGSFELPYGSKLFVEKQKRLGKPLDAIIPIGVLIRGSTAHFDYIADSTTHQLMKLNFELGIPVIFGVLTTESGGSASPAAPAPASPAAPAPSAPAAASPAAPAPASPAAPAPSAPAAASPAAPAPASPAAPAPSAPAA
B4: I53_dn5Acp7 pentamer with ELP fused to the C terminus (designed binder)
chain: MGSHHHHHHGSDEQAEERAGTKAGNHGEDWGAAAVEMATKFNGSGGSGKYDGSKLRIGILHARGNAEIILELVLGALKRLQEFGVKRENIIIETVPGSFELPYGSKLFVEKQKRLGKPLDAIIPIGVLIRGSTAHFDYIADSTTHQLMKLNFELGIPVIFGVLTTES
B5: I53_dn5A_2C2kPEG pentamer (designed binder)
chain: B1 chain with S86C
B6: I53_dn5A_S84C_D120C pentamer coupled to 1 kDa PEG (designed binder)
chain: B1 chain with S86C
B7: I53_dn5A_D120C pentamer coupled to 2 kDa PEG (designed binder)
chain: B1 chain
B8: SEQ ID NO 77 (I53-50A_7gly) (designed binder)
chain: EELFKKHKIVAVLRANSVEEAIEKAVAVFAGGVHLIEITFTVPNATTVIKALSVLKEKGAIIGAGTVTSVEYANETVESNATFIVSPHLDEEISNFTKEKNVTYMPGVMTPTELVKAMKLNVTILKLFPGEVVGPQFVKAMKGPFHNATFVPTGGVNLDNVCEWFKAGVLAVGVGSALVKGTPDEVREKAKAFVEKIRGC
modifications: N-linked glycans at sequons 45-NAT-47; 73-YANET-77; 81-NAT-83; 96-NFT-98; 102-NVT-104; 122-NVT-124; 146-FHNAT-150
B9: SEQ ID NO 75 (I53-50A_6gly) (designed binder)
chain: B8 chain with N80G, T82E
modifications: N-linked glycans at sequons 45-NAT-47; 73-YANET-77; 96-NFT-98; 102-NVT-104; 122-NVT-124; 146-FHNAT-150
B10: SEQ ID NO 76 (I53-50A_7gly) (designed binder)
chain: B8 chain with T68F, V70N, Y72T, A73C, N74R, E75K, T76A
modifications: N-linked glycans at sequons 45-NAT-47; 69-FSNET-73; 81-NAT-83; 96-NFT-98; 102-NVT-104; 122-NVT-124; 146-FHNAT-150
B11: I53_dn5A_2gly pentamer (designed binder)
chain: KYDGSKLRIGILHARGNAEIILELVLGALKRLQEFGVKRENIIIETVPGSFELPYGSKLFVEKQKRLGKPLDAIIPIGVLIRGNDTHFDYIADSTTHQLMKLNFELGIPVIFGVLTTNSTEQAEERAGTKAGNHGEDWGAAAVEMATKFNLEEQKLISEEDLHHHHHH
B12: SEQ ID NO 49 (I53_dn5A_3gly) (designed binder)
chain: B11 chain with G83N, N84E, D85T, T86A, S119D, K130N, G132T
modifications: N-linked glycans at sequons 83-NET-85; 118-NDT-120; 130-NAT-132
B13: SEQ ID NO 50 (I53_dn5A_3gly) (designed binder)
chain: B11 chain with N118E, T120N, Q122T, A131N, N133T
modifications: N-linked glycans at sequons 84-NDT-86; 120-NET-122; 131-NGT-133
B14: SEQ ID NO 51 (I53_dn5A_3gly) (designed binder)
chain: B11 chain with S119D, K130N, G132T
modifications: N-linked glycans at sequons 84-NDT-86; 118-NDT-120; 130-NAT-132
B15: SEQ ID NO 52 (I53_dn5A_2gly) (designed binder)
chain: B11 chain with G83N, N84D, D85T, T86A, N118E, T120D, K130N, G132T
modifications: N-linked glycans at sequons 83-NDT-85; 130-NAT-132
B16: SEQ ID NO 53 (I53_dn5A_2gly) (designed binder)
chain: B11 chain with N118E, T120D, A131N, N133T
modifications: N-linked glycans at sequons 84-NDT-86; 131-NGT-133
B17: SEQ ID NO 55 (I53_dn5A_2gly) (designed binder)
chain: B11 chain with N84S, D85T, T86A, N118E, T120N, Q122T, K130N, G132T
modifications: N-linked glycans at sequons 120-NET-122; 130-NAT-132
B18: I53-50A_4gly trimer (designed binder)
chain: EELFKKHKIVAVLRANSVEEAIEKAVAVFAGGVHLIEITFTVPNATTVIKALSVLKEKGAIIGAGTVTSVEYANETVESGAEFIVSPHLDEEISNFTKEKGVFYMPGVMTPTELVKAMKLGHTILKLFPGEVVGPQFVKAMKGPFHNATFVPTGGVNLDNVCEWFKAGVLAVGVGSALVKGTPDEVREKAKAFVEKIRGCLEEQKLISEEDLHHHHHH
modifications: N-linked glycans at sequons 45-NAT-47; 73-YANET-77; 96-NFT-98; 146-FHNAT-150
B19: SEQ ID NO 68 (I53-50A_4gly) (designed binder)
chain: B8 chain with N101G, T103F, N121G, V122H, H146P, A148V, T149K
modifications: N-linked glycans at sequons 45-NAT-47; 73-YANET-77; 81-NAT-83; 96-NFT-98
B20: SEQ ID NO 69 (I53-50A_4gly) (designed binder)
chain: B8 chain with N44D, T46D, Y72Q, A73C, N74R, E75K, T76A, N80G, T82E
modifications: N-linked glycans at sequons 96-NFT-98; 102-NVT-104; 122-NVT-124; 146-FHNAT-150
B21: SEQ ID NO 71 (I53-50A_5gly) (designed binder)
chain: B8 chain with N80G, T82E, N101G, T103F
modifications: N-linked glycans at sequons 45-NAT-47; 73-YANET-77; 96-NFT-98; 122-NVT-124; 146-FHNAT-150
B22: SEQ ID NO 73 (I53-50A_6gly) (designed binder)
chain: B8 chain with T68F, V70N, Y72T, A73C, N74R, E75K, T76A, N80G, T82E
modifications: N-linked glycans at sequons 45-NAT-47; 69-FSNET-73; 96-NFT-98; 102-NVT-104; 122-NVT-124; 146-FHNAT-150
B23: SEQ ID NO 74 (I53-50A_6gly) (designed binder)
chain: B8 chain with Y72Q, A73C, N74R, E75K, T76A
modifications: N-linked glycans at sequons 45-NAT-47; 81-NAT-83; 96-NFT-98; 102-NVT-104; 122-NVT-124; 146-FHNAT-150
B24: SEQ ID NO 70 (I53-50A_4gly) (designed binder)
chain: EELFKKHKIVAVLRANSVEEAIEKAVAVFAGGVHLIEITFTVPDADTVIKALSVLKEKGAIIGAGTVFSNETCRKAVESNATFIVSPHLDEEISNFTKEKNVTYMPGVMTPTELVKAMKLGHTILKLFPGEVVGPQFVKAMKGPFPNVKFVPTGGVNLDNVCEWFKAGVLAVGVGSALVKGTPDEVREKAKAFVEKIRGC
modifications: N-linked glycans at sequons 69-FSNET-73; 81-NAT-83; 96-NFT-98; 102-NVT-104
B25: I53_dn5A_1C5kPEG pentamer (designed binder)
chain: B1 chain

Target: T1, I53_dn5B trimer
Assay: in vitro nanoparticle assembly, SEC

Does B1 bind?
Result: binds

Does B2 bind?
Result: binds

Does B3 bind?
Result: binds

Does B4 bind?
Result: binds

Does B5 bind?
Result: binds

Does B6 bind?
Result: binds

Does B7 bind?
Result: binds

These binders were tested against I53-50B.4PT1 pentamer (assay: in vitro nanoparticle assembly (Table 3; '-' means no nanoparticle assembly)).

Does B8 bind?
Result: no binding

Does B9 bind?
Result: no binding

Does B10 bind?
Result: no binding

Target: T1, I53_dn5B trimer
Assay: nanoparticle assembly grade, Table 3

Does B11 bind?
Result: binds

Does B12 bind?
Result: binds

Does B13 bind?
Result: binds

Does B14 bind?
Result: binds

Does B15 bind?
Result: binds

Does B16 bind?
Result: binds

Does B17 bind?
Result: binds

These binders were tested against I53-50B.4PT1 pentamer (assay: nanoparticle assembly grade, Table 3).

Does B18 bind?
Result: binds

Does B19 bind?
Result: binds

Does B20 bind?
Result: binds

Does B21 bind?
Result: binds

Does B22 bind?
Result: binds

Does B23 bind?
Result: binds

Does B24 bind?
Result: binds

Target: T1, I53_dn5B trimer
Assay: in vitro nanoparticle assembly, SEC and SDS-PAGE

Does B25 bind?
Result: binds

Target: T2, I53_dn5B_2gly trimer
Assay: in vitro nanoparticle assembly, SEC and SDS-PAGE

Does B11 bind?
Result: binds
